From patent US20240067727A1 (OSE IMMUNOTHERAPEUTICS, published 2024)

Molecular target: T1, recombinant hPD1 (Sino Biologicals, reference 10377-H08H) (human, UniProt Q15116 25-167)
T1 construct: also called Human recombinant PD-1; rPD1
Assay: ELISA: human recombinant PD-1 immobilised, detection with anti-human Fc-peroxidase, TMB
Protocol: PD-1 binding ELISA assay. Human recombinant PD-1 (rPD1) protein was immobilized, and antibodies were added at different concentrations. Revelation was performed with an anti-human Fc antibody coupled to peroxidase. Colorimetry was determined at 450 nm using TMB substrate. The bifunctional molecules comprising an IL7 W142H N297A variant with 1 anti PD-1 arm ( ) was tested as control.

T1 sequence (Q15116 25-167 limits assumed): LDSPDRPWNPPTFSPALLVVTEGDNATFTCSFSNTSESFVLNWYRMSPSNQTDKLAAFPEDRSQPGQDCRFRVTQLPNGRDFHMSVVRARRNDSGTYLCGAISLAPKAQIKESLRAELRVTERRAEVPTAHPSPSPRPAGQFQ

Binder | EC50 (read off the curve) [µg/mL]
anti PD-1*1 IL7 W142H*1 N297A DHS (other, also called IL7 W142H N297A DHS) DKTHTCPPCPAPELLGGPSVFLFPPKPKDTLMISRTPEVTCVVVDVSHEDPEVKFNWYVDGVEVHNAKTKPREEQYASTYRVVSVLTVDHHDWLNGKEYKCKVSNKALPAPIEKTISKAKGQPREPQVYTLPPCRDELTKNQVSLWCLVKGFYPSDIAVEWESNGQPENNYKTTPPVLDSDGSFFLYSKLTVDKSRWQQGNVFSCSVMHEALHSHYTQKSLSLSPGK heavy: QIQLVQSGSELKKPGASVKVSCKASGYTFTHYAMNWVRQAPGQGLEWMGWINTNTGEPTYAQGFTGRFVFSLDTSVSTAYLQISSLKAEDTAVYYCAREREPGMDNWGQGTLVTVSSASTKGPSVFPLAPSSKSTSGGTAALGCLVKDYFPEPVTVSWNSGALTSGVHTFPAVLQSSGLYSLSSVVTVPSSSLGTQTYICNVNHKPSNTKVDKKVEPKSCDKTHTCPPCPAPELLGGPSVFLFPPKPKDTLMISRTPEVTCVVVDVSHEDPEVKFNWYVDGVEVHNAKTKPREEQYASTYRVVSVLTVDHHDWLNGKEYKCKVSNKALPAPIEKTISKAKGQPREPQVCTLPPSRDELTKNQVSLSCAVKGFYPSDIAVEWESNGQPENNYKTTPPVLDSDGSFFLVSKLTVDKSRWQQGNVFSCSVMHEALHSHYTQKSLSLSPGKGGGGSGGGGSGGGGSDCDIEGKDGKQYESVLMVSIDQLLDSMKEIGSNCLNNEFNFFKRHICDANKEGMFLFRAARKLRQFLKMNSTGDFDLHLLKVSEGTTILLNCTGQVKGRKPAALGEAQPTKSLEENKSLKEQKKLNDLCFLKRLLQEIKTCHNKILMGTKEH light: DVVMTQSPLSLPVTLGQPASISCRSSQSLVHANTNTYLEWYQQRPGQSPRLLIYKVSNRFSGVPDRFSGSGSGTDFTLKISRVEAEDVGVYYCFQGTHVPNTFGQGTKLEIKRTVAAPSVFIFPPSDEQLKSGTASVVCLLNNFYPREAKVQWKVDNALQSGNSQESVTEQDSKDSTYSLSSTLTLSKADYEKHKVYACEVTHQGLSSPVTKSFNRGEC | ~0.05
anti PD-1*1 IL7 W142H*1 N297A LS (other, Fc mutant of anti PD-1*1 IL7W142H*1; also called IL7 W142H N297A LS) DKTHTCPPCPAPELLGGPSVFLFPPKPKDTLMISRTPEVTCVVVDVSHEDPEVKFNWYVDGVEVHNAKTKPREEQYASTYRVVSVLTVLHQDWLNGKEYKCKVSNKALPAPIEKTISKAKGQPREPQVYTLPPCRDELTKNQVSLWCLVKGFYPSDIAVEWESNGQPENNYKTTPPVLDSDGSFFLYSKLTVDKSRWQQGNVFSCSVLHEALHSHYTQKSLSLSPGK heavy: QIQLVQSGSELKKPGASVKVSCKASGYTFTHYAMNWVRQAPGQGLEWMGWINTNTGEPTYAQGFTGRFVFSLDTSVSTAYLQISSLKAEDTAVYYCAREREPGMDNWGQGTLVTVSSASTKGPSVFPLAPSSKSTSGGTAALGCLVKDYFPEPVTVSWNSGALTSGVHTFPAVLQSSGLYSLSSVVTVPSSSLGTQTYICNVNHKPSNTKVDKKVEPKSCDKTHTCPPCPAPELLGGPSVFLFPPKPKDTLMISRTPEVTCVVVDVSHEDPEVKFNWYVDGVEVHNAKTKPREEQYASTYRVVSVLTVLHQDWLNGKEYKCKVSNKALPAPIEKTISKAKGQPREPQVCTLPPSRDELTKNQVSLSCAVKGFYPSDIAVEWESNGQPENNYKTTPPVLDSDGSFFLVSKLTVDKSRWQQGNVFSCSVLHEALHSHYTQKSLSLSPGKGGGGSGGGGSGGGGSDCDIEGKDGKQYESVLMVSIDQLLDSMKEIGSNCLNNEFNFFKRHICDANKEGMFLFRAARKLRQFLKMNSTGDFDLHLLKVSEGTTILLNCTGQVKGRKPAALGEAQPTKSLEENKSLKEQKKLNDLCFLKRLLQEIKTCHNKILMGTKEH light: DVVMTQSPLSLPVTLGQPASISCRSSQSLVHANTNTYLEWYQQRPGQSPRLLIYKVSNRFSGVPDRFSGSGSGTDFTLKISRVEAEDVGVYYCFQGTHVPNTFGQGTKLEIKRTVAAPSVFIFPPSDEQLKSGTASVVCLLNNFYPREAKVQWKVDNALQSGNSQESVTEQDSKDSTYSLSSTLTLSKADYEKHKVYACEVTHQGLSSPVTKSFNRGEC | ~0.03
